This note sets out measurements from article PMC9095961.

The experiment has as its target fluorescently labelled recombinant HAUSP (UniProt Q93009). Kind of experiment: other fluorescence titration; BODIPY FL-labelled HAUSP titrated with unlabeled PE_PGRS38; 25°C, 30 mM Tris pH 7.4, 150 mM NaCl, 1 mM dithiothreitol; fitted with Grafit.
Sequence of UniProt Q93009 (Q93009 whole entry): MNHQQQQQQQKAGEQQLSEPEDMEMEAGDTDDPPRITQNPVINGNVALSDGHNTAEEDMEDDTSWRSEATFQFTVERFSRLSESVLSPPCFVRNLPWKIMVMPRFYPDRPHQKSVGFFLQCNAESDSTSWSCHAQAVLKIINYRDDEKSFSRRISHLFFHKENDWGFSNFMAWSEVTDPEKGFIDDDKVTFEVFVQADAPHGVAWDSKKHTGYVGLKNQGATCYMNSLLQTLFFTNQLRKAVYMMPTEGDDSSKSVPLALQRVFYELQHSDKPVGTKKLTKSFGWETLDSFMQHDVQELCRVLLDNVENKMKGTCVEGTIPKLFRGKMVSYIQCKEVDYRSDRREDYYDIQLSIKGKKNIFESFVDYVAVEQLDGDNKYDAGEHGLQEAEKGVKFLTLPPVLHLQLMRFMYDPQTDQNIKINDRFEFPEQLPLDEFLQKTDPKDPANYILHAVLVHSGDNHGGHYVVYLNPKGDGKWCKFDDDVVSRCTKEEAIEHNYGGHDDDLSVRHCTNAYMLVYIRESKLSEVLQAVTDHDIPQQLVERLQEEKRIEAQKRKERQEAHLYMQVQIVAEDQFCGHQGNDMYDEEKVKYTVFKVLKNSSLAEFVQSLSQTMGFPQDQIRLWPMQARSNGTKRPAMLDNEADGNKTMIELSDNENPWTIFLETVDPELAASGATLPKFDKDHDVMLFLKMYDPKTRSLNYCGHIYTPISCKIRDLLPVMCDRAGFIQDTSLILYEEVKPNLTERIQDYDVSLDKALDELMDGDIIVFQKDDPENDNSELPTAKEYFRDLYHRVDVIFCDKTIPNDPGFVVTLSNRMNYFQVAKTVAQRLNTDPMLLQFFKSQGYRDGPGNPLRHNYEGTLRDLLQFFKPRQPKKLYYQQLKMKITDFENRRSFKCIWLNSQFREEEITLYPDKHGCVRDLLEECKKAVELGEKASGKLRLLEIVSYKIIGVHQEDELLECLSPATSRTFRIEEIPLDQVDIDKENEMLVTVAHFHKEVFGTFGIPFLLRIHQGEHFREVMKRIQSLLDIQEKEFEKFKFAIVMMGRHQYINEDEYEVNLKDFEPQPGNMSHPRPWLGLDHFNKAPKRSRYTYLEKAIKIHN

In general, Kd refers to the equilibrium constant for the complex coming apart. As to “recombinant PE_PGRS38 (from UniProt L7N6A1 1-532) (natural protein)”, the Kd turned out to be 143 nM.
